Patent US20240392004A1 (IMMUNOWAKE, published 2024)

T1: mouse PD-1 (mouse, UniProt Q02242 25-167, limits assumed)
T1 construct: also called mPD-1
T1 sequence (looked up): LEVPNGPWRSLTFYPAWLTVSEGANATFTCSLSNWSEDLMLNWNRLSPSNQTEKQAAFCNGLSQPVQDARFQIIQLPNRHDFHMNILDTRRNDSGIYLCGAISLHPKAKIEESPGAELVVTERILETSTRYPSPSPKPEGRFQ


Assays:
human PD-1 [1] = target: T2, human PD-1 (human, UniProt Q15116 25-167, limits assumed); assay: PD-L2-Fc format, method not stated
T2 construct: also called hPD-1

mouse PD-1 [2] = target: T1, mouse PD-1; assay: PD-L2-Fc format, method not stated
human PD-1 [3] = target: T2, human PD-1; assay: rounded restatement of Tables 14 and 15
mouse PD-1 [4] = target: T1, mouse PD-1; assay: rounded restatement of Tables 14 and 15
mouse PD-1 [5] = target: T1, mouse PD-1; assay: same value as Table 15 (measured in PD-L2-Fc format)

T2 sequence (Q15116 25-167 limits assumed): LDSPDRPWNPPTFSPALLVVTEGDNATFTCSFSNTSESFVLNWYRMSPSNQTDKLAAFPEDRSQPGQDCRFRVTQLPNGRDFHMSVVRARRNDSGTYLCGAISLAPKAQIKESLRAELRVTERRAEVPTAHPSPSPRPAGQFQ

Binder | Kd (human PD-1 [1]) | Kd (mouse PD-1 [2]) | Kd (human PD-1 [3]) | Kd (mouse PD-1 [4]) | Kd (mouse PD-1 [5])
PD-L2(wt)-Fc (heterodimer) (Fc fusion) chain 1: LFTVTVPKELYIIEHGSNVTLECNFDTGSHVNLGAITASLQKVENDTSPHRERATLLEEQLPLGKASFHIPQVQVRDEGQYQCIIIYGVAWDYKYLTLKVKASYRKINTHILKVPETDEVELTCQATGYPLAEVSWPNVSVPANTSHSRTPEGLYQVTSVLRLKPPPGRNFSCVFWNTHVRELTLASIDLQSQMEPRTHPTDKTHTCPPCPAPEDEGGPSVFLFPPKPKDTLMISRTPEVTCVVVDVSHEDPEVKFNWYVDGVEVHNAKTKPREEQYNSTYRVVSVLTVLHQDWLNGKEYKCKVSNKALPAPIEKTISKAKGQPREPQVYVYPPSREEMTKNQVSLTCLVKGFYPSDIAVEWESNGQPENNYKTTPPVLDEDGSFALVSKLTVDKSRWQQGNVFSCSVMHEALHNHYTQKSLSLSPGK chain 2: LFTVTVPKELYIIEHGSNVTLECNFDTGSHVNLGAITASLQKVENDTSPHRERATLLEEQLPLGKASFHIPQVQVRDEGQYQCIIIYGVAWDYKYLTLKVKASYRKINTHILKVPETDEVELTCQATGYPLAEVSWPNVSVPANTSHSRTPEGLYQVTSVLRLKPPPGRNFSCVFWNTHVRELTLASIDLQSQMEPRTHPTDKTHTCPPCPAPEKKGGPSVFLFPPKPKDTLMISRTPEVTCVVVDVSHEDPEVKFNWYVDGVEVHNAKTKPREEQYNSTYRVVSVLTVLHQDWLNGKEYKCKVSNKALPAPIEKTISKAKGQPREPQVYVLPPSREEMTKNQVSLLCLVKGFYPSDIAVEWESNGQPENRYMTWPPVLDSDGSFFLYSKLTVDKSRWQQGNVFSCSVMHEALHNHYTQKSLSLSPGK | 1200 nM | 980 nM |  |  | 
IL-12(E59A/F60A)/PD-L2(S58V)-Fc (IL-12 at hinge) (Fc fusion, also called IL-12(E59A/F60A)/PD-L2(mut2)-Fc) chain 1: LFTVTVPKELYIIEHGSNVTLECNFDTGSHVNLGAITAVLQKVENDTSPHRERATLLEEQLPLGKASFHIPQVQVRDEGQYQCIIIYGVAWDYKYLTLKVKASYRKINTHILKVPETDEVELTCQATGYPLAEVSWPNVSVPANTSHSRTPEGLYQVTSVLRLKPPPGRNFSCVFWNTHVRELTLASIDLQSQMEPRTHPTGGGGSGGGIWELKKDVYVVELDWYPDAPGEMVVLTCDTPEEDGITWTLDQSSEVLGSGKTLTIQVKAAGDAGQYTCHKGGEVLSHSLLLLHKKEDGIWSTDILKDQKEPKNKTFLRCEAKNYSGRFTCWWLTTISTDLTFSVKSSRGSSDPQGVTCGAATLSAERVRGDNKEYEYSVECQEDSACPAAEESLPIEVMVDAVHKLKYENYTSSFFIRDIIKPDPPKNLQLKPLKNSRQVEVSWEYPDTWSTPHSYFSLTFCVQVQGKSKREKKDRVFTDKTSATVICRKNASISVRAQDRYYSSSWSEWASVPCSGGGGSGGGSGGGGSRNLPVATPDPGMFPCLHHSQNLLRAVSNMLQKARQTLEFYPCTSEEIDHEDITKDKTSTVEACLPLELTKNESCLNSRETSFITNGSCLASRKTSFMMALCLSSIYEDLKMYQVEFKTMNAKLLMDPKRQIFLDQNMLAVIDELMQALNFNSETVPQKSSLEEPDFYKTKIKLCILLHAFRIRAVTIDRVMSYLNASGGGGSGGGDKTHTCPPCPAPEDEGGPSVFLFPPKPKDTLMISRTPEVTCVVVDVSHEDPEVKFNWYVDGVEVHNAKTKPREEQYNSTYRVVSVLTVLHQDWLNGKEYKCKVSNKALPAPIEKTISKAKGQPREPQVYVYPPSREEMTKNQVSLTCLVKGFYPSDIAVEWESNGQPENNYKTTPPVLDEDGSFALVSKLTVDKSRWQQGNVFSCSVMHEALHNHYTQKSLSLSPGK chain 2: LFTVTVPKELYIIEHGSNVTLECNFDTGSHVNLGAITAVLQKVENDTSPHRERATLLEEQLPLGKASFHIPQVQVRDEGQYQCIIIYGVAWDYKYLTLKVKASYRKINTHILKVPETDEVELTCQATGYPLAEVSWPNVSVPANTSHSRTPEGLYQVTSVLRLKPPPGRNFSCVFWNTHVRELTLASIDLQSQMEPRTHPTGGGGSGGGDKTHTCPPCPAPEKKGGPSVFLFPPKPKDTLMISRTPEVTCVVVDVSHEDPEVKFNWYVDGVEVHNAKTKPREEQYNSTYRVVSVLTVLHQDWLNGKEYKCKVSNKALPAPIEKTISKAKGQPREPQVYVLPPSREEMTKNQVSLLCLVKGFYPSDIAVEWESNGQPENRYMTWPPVLDSDGSFFLYSKLTVDKSRWQQGNVFSCSVMHEALHNHYTQKSLSLSPGK |  |  | ~100 nM | ~100 nM | 230 nM
